Measurements taken from US20260209301A1, “Galanin-2 Receptor Agonists” (LIFEARC, priority 2022, published 2026).

Key:
[1] = test system: mouse chemotherapy-induced model of neuropathic pain; test: Oxaliplatin chemotherapy-induced neuropathic pain model, von Frey; type: in vivo; conditions: 0.1, 1 and 3 mg/kg i.p.; 4 hours post dose (day 5 after Oxaliplatin)
Protocol: Oxaliplatin-induced hypersensitivity: A single dose of Oxaliplatin was injected intraperitoneally (i.p.) at 10 mg/kg at a volume of 10 ml/kg. Oxaliplatin was dissolved in 5% dextrose to 1 mg/ml before use. Animals were injected in the same order in which they were tested.
Static mechanical tactile allodynia: Static mechanical (tactile) allodynia was assessed by measurement of withdrawal threshold using calibrated (force; g) von-Frey monofilaments (Touch-Test Sensory Evaluator; Scientific Marketing Associates) applied to the plantar surface of the hind paw. Animals were placed in individual Perspex boxes on a raised metal mesh for 30-40 min before the test. A series of graduated von Frey hairs (0.07, 0.16, 0.4, 0.6 and 1 g) was applied in sequence with a protocol of 1 sec on 1 sec off repeated 10 times. […] The force applied to the hind-paw of the animal to induce 5 responses out of 10 trials was recorded as paw withdrawal threshold (PWT).
Baseline PWT was assessed on three consecutive days (Day-3, Day-2 and Day-1). […]
Mechanical allodynia was re-assessed on Day 3 and 4 post-administration of a single dose of Oxaliplatin to monitor the development of allodynia. […]
Mechanical allodynia was re-assessed on Day 5 (4 hours post dose) and thereafter determined on Days 6 and 7 after administration of Oxaliplatin (i.e. 24 hours and 48 hours post FC2-13 treatment). […]

[2] = biological target: T1, mouse GalR2 (Mus musculus, UniProt O88854); test: Calcium assay at orthologue receptor; type: cell-based; conditions: Table 8; Calcium assays; mean +/− standard deviation
T1 sequence (O88854 1-371): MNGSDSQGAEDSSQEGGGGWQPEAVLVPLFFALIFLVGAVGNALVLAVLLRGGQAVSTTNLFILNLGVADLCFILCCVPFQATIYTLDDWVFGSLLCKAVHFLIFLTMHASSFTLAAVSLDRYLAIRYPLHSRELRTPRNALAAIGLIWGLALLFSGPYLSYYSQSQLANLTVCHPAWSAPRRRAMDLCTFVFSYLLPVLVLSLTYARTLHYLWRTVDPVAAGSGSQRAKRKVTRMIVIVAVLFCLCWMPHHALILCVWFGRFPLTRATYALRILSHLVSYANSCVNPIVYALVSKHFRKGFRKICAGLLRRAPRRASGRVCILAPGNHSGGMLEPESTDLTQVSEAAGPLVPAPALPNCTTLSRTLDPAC
Description: These species were chosen as they represent potential downstream in vivo models to be used. Within native galanin amino acid residues 1-15 are conserved across species, we would therefore expect the Gal FC fusions comprising amino acids 2 to 13 to retain GalR2 activity in these species. Calcium imaging was used to define receptor activity.

[3] = biological target: T2, GALR2 (Homo sapiens, UniProt O43603); test: Radioligand binding, [125I]galanin displacement on CHO GalR2 membranes; parameters: expressed in transfected cells; host or cells: CHO (Flp-In, pcDNA5/FRT); conditions: recombinant GalR2 membranes, FIG. 3
T2 sequence (O43603 1-387): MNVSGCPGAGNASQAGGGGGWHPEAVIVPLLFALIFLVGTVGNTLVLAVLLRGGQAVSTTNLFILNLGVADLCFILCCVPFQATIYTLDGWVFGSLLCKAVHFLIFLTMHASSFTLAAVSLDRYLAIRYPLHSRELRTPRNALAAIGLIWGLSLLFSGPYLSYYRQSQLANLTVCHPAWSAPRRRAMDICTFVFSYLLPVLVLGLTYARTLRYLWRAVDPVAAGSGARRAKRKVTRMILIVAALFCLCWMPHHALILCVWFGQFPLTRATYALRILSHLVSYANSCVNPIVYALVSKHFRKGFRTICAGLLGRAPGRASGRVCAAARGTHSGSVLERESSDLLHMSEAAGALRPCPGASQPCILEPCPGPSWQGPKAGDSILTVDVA
Protocol: Cell membrane homogenates (4 μg protein—from CHO cells expressing the GalR2 receptor) were incubated for 120 minutes at 22° C. with 0.05 nM [^125I] galanin in the absence or presence of test compound in a buffer containing 25 mM Tris-HCl (pH 7.4, 10 mM MgCl2 and 0.5% BSA. Non-specific binding was determined in the presence of 1 μM porcine galanin. Following incubation, samples were filtered rapidly under vacuum through glass fiber filters (GF/B, Packard) pre-soaked with 0.3% PEI and rinsed several times with ice cold 50 mM Tris-HCl using a 96 sample cell harvester (Unifilter, Packard). The filters are dried then counted for radioactivity in a scintillation counter (Topcount, Packard) using a scintillation cocktail (Microscint 0), Packard). The results are expressed as a percent inhibition of the control radioligand specific binding. The standard reference compound is porcine galanin which is tested in each experiment at several concentrations to obtain a competition curve from which its IC50 is generated.
Briefly, cell overexpressing recombinant GalR2 were used to for crude membrane preparations. Competition style binding assays were then used to monitor displacement of [125I]-Galanin using a range of concentrations of Gal-FC fusion. After a period of incubation data were expressed relative the maximum specific Galanin bound.

Substance | reversal of Oxaliplatin-induced mechanical hyperalgesia [1] | Mouse GalR2 activity [2] | pIC50, displacement of [125I]-Galanin binding [3]
Gal2-13FC: galanin 2-13, AEAAAKEAAAKA linker, human IgG1 FC; SEQ ID NO: 7 | efficacious | 6.4 +/− 0.3 | 
Gal2-30FC: galanin 2-30, AEAAAKEAAAKA linker, human IgG1 FC; SEQ ID NO: 28 |  | 7.0 +/− 0.1 | 7.55
